The values that follow come from PMC10148081.

The assay addresses Leishmania tarentolae propionyl-CoA carboxylase (LtPCC) β-subunit (Leishmania tarentolae (endogenous in L. tarentolae cells)). Briefly: cryo-EM structure; endogenous LtPCC complexes from streptavidin pull-down, in 20 mM Tris-HCl pH 7.5, 60 mM KCl, 5 mM MgCl2, 1 mM DTT, 5 mM OG; α6β6 map with D3 symmetry at 3.2 Å, α5β6 (8.6 Å) and α4β6 (10.3 Å) maps with C1 symmetry.

Usually stoichiometry N stands for the number of molecules, sites or subunits per partner or assembly. For “Leishmania tarentolae propionyl-CoA carboxylase (LtPCC) β-subunit (natural protein)”, the stoichiometry N was 6.
